Assay results taken from patent publication US20090286719A1.

Experiments:
[1] = target: a site on the cancer and normal cell surface (human); test: whole-cell binding assay on UISO-Mel-2 cells with 125I azurin, Scatchard analysis
[2] = target: a site on the cancer and normal cell surface (human); test: whole-cell binding assay on UISO-Mel-2 cells, 125I azurin with or without unlabeled competitor, Scatchard analysis

Work on “azurin from Pseudomonas aeruginosa (wt-azurin)” yielded a Bmax [1] of 0.48 pm and a Kd [1] of 10 nM.
“p18, Leu50-Gly67 of Pseudomonas aeruginosa azurin (peptide)” was tested, and the Bmax [2] was 0.51 pm.
“p28, Leu50-Asp77 of Pseudomonas aeruginosa azurin (peptide)” gave a Bmax [2] of 3.
